To fix the notation:
B1: PPP2R2C (parent)
chain: YSSSKGSLRLCDMRAAALCDKHSK
B2: TRAF3IP2 (parent)
chain: PRPPSNPPARGTLKTSNLPEELRK

These results are taken from the supplement of paper PMC10567573.
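Also: lentivirally expressed fusions sorted by FACS into six bins by GFP to DsRed ratio, PSI derived from sequencing read proportions per bin multiplied by bin number.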

In one data set the parent is B1. The data set is described as follows: protein stability index of a GFP-peptide fusion (GPS, HEK-293T) (PSI 1-6); higher = more stable. As to conditions: c terminus: a fixed tail appended.
YSSMKGSLRLCDMRAAALCDKHSK [S4M]: the protein stability index stood at 2. Same read-out and setting: for YSSNKGSLRLCDMRAAALCDKHSK [S4N] the value was 2.32. Still for that read-out and setting: for YSSGKGSLRLCDMRAAALCDKHSK [S4G] the value was 2.87; for YSSFKGSLRLCDMRAAALCDKHSK [S4F], 2.27.

As for YSSPKGSLRLCDMRAAALCDKHSK [S4P], the protein stability index was 2.57. YSSTKGSLRLCDMRAAALCDKHSK [S4T]: the protein stability index worked out at 1.8.

For the variant YSSKKGSLRLCDMRAAALCDKHSK [S4K], the protein stability index was 1.34. Same read-out and setting: for YSSEKGSLRLCDMRAAALCDKHSK [S4E] the value was 2.78.

Regarding YSSYKGSLRLCDMRAAALCDKHSK [S4Y], the protein stability index came out at 1.98. The same measure, in the same setting: for YSSRKGSLRLCDMRAAALCDKHSK [S4R] the value was 2.11; for YSSHKGSLRLCDMRAAALCDKHSK [S4H], 2.09.

As for YSSLKGSLRLCDMRAAALCDKHSK [S4L], the protein stability index came out at 2.62. For the variant YSSWKGSLRLCDMRAAALCDKHSK [S4W], the protein stability index was 1.63. Same read-out and setting: for YSSCKGSLRLCDMRAAALCDKHSK [S4C] the value was 1.38; for YSSAKGSLRLCDMRAAALCDKHSK [S4A], 2.44. The same measure, in the same setting: for YSSQKGSLRLCDMRAAALCDKHSK [S4Q] the value was 2.32. With YSSVKGSLRLCDMRAAALCDKHSK [S4V], the protein stability index stood at 2.45. The same measure, in the same setting: for YSSIKGSLRLCDMRAAALCDKHSK [S4I] the value was 2.06.

In the case of YSMSKGSLRLCDMRAAALCDKHSK [S3M], the protein stability index was determined as 2.84. Consider YSNSKGSLRLCDMRAAALCDKHSK [S3N], for which the protein stability index came to 2.48.

Take YSLSKGSLRLCDMRAAALCDKHSK [S3L]: the protein stability index is 2.7. Still for that read-out and setting: for YSGSKGSLRLCDMRAAALCDKHSK [S3G] the value was 1.95. The same measure, in the same setting: for YSISKGSLRLCDMRAAALCDKHSK [S3I] the value was 3.06; for YSHSKGSLRLCDMRAAALCDKHSK [S3H], 2.52; for YSYSKGSLRLCDMRAAALCDKHSK [S3Y], 1.83. For the variant YSASKGSLRLCDMRAAALCDKHSK [S3A], the protein stability index is 2.93. In the case of YSRSKGSLRLCDMRAAALCDKHSK [S3R], the protein stability index was determined as 2.29. On the same count and under the same terms, for YSDSKGSLRLCDMRAAALCDKHSK [S3D] the value was 2.92; for YSKSKGSLRLCDMRAAALCDKHSK [S3K], 2.37. For YSCSKGSLRLCDMRAAALCDKHSK [S3C], the protein stability index is 3.48. Same read-out and setting: for YSWSKGSLRLCDMRAAALCDKHSK [S3W] the value was 2.15. Take YSTSKGSLRLCDMRAAALCDKHSK [S3T]: the protein stability index worked out at 2.11.

Consider YSQSKGSLRLCDMRAAALCDKHSK [S3Q], for which the protein stability index was 2.45.

As to YSESKGSLRLCDMRAAALCDKHSK [S3E], the protein stability index came out at 2.53.

Consider YSPSKGSLRLCDMRAAALCDKHSK [S3P], for which the protein stability index came to 2.79.

On to YSFSKGSLRLCDMRAAALCDKHSK [S3F], for which the protein stability index is 2.39. Take YSVSKGSLRLCDMRAAALCDKHSK [S3V]: the protein stability index was found to be 1.96.

With YSSSKGHLRLCDMRAAALCDKHSK [S7H], the protein stability index came out at 2.92. For YSSSKGGLRLCDMRAAALCDKHSK [S7G], the protein stability index was 4.06. The same measure, in the same setting: for YSSSKGQLRLCDMRAAALCDKHSK [S7Q] the value was 2.04. On to YSSSKGLLRLCDMRAAALCDKHSK [S7L], for which the protein stability index was found to be 1.49. Same read-out and setting: for YSSSKGTLRLCDMRAAALCDKHSK [S7T] the value was 1.8; for YSSSKGCLRLCDMRAAALCDKHSK [S7C], 1.76; for YSSSKGILRLCDMRAAALCDKHSK [S7I], 1.34. Regarding YSSSKGKLRLCDMRAAALCDKHSK [S7K], the protein stability index came to 1.07. Same read-out and setting: for YSSSKGELRLCDMRAAALCDKHSK [S7E] the value was 1.56; for YSSSKGDLRLCDMRAAALCDKHSK [S7D], 2.24. Same read-out and setting: for YSSSKGMLRLCDMRAAALCDKHSK [S7M] the value was 1.76.

In the case of YSSSKGALRLCDMRAAALCDKHSK [S7A], the protein stability index was 2.9.

Consider YSSSKGRLRLCDMRAAALCDKHSK [S7R], for which the protein stability index came out at 2.04. With YSSSKGPLRLCDMRAAALCDKHSK [S7P], the protein stability index is 1.89. The same measure, in the same setting: for YSSSKGVLRLCDMRAAALCDKHSK [S7V] the value was 2.24. In the case of YSSSKGNLRLCDMRAAALCDKHSK [S7N], the protein stability index worked out at 1.65. Still for that read-out and setting: for YSSSKGYLRLCDMRAAALCDKHSK [S7Y] the value was 1.94; for YSSSKGWLRLCDMRAAALCDKHSK [S7W], 3.69. With MSSSKGSLRLCDMRAAALCDKHSK [Y1M], the protein stability index came to 3.54. Still for that read-out and setting: for KSSSKGSLRLCDMRAAALCDKHSK [Y1K] the value was 3.79; for FSSSKGSLRLCDMRAAALCDKHSK [Y1F], 2.31; for WSSSKGSLRLCDMRAAALCDKHSK [Y1W], 2.92. Same read-out and setting: for NSSSKGSLRLCDMRAAALCDKHSK [Y1N] the value was 3.81. Still for that read-out and setting: for ASSSKGSLRLCDMRAAALCDKHSK [Y1A] the value was 3.93; for CSSSKGSLRLCDMRAAALCDKHSK [Y1C], 2.98.

Regarding LSSSKGSLRLCDMRAAALCDKHSK [Y1L], the protein stability index is 3.65.

With GSSSKGSLRLCDMRAAALCDKHSK [Y1G], the protein stability index was found to be 3.72. Regarding PSSSKGSLRLCDMRAAALCDKHSK [Y1P], the protein stability index came to 3.65. In the case of HSSSKGSLRLCDMRAAALCDKHSK [Y1H], the protein stability index was found to be 3.72. The same measure, in the same setting: for RSSSKGSLRLCDMRAAALCDKHSK [Y1R] the value was 3.81; for TSSSKGSLRLCDMRAAALCDKHSK [Y1T], 4.13.

As to SSSSKGSLRLCDMRAAALCDKHSK [Y1S], the protein stability index stood at 3.74. The same measure, in the same setting: for ESSSKGSLRLCDMRAAALCDKHSK [Y1E] the value was 4.47; for DSSSKGSLRLCDMRAAALCDKHSK [Y1D], 4.63. In the case of VSSSKGSLRLCDMRAAALCDKHSK [Y1V], the protein stability index was determined as 3.56. On the same count and under the same terms, for QSSSKGSLRLCDMRAAALCDKHSK [Y1Q] the value was 3.95; for ISSSKGSLRLCDMRAAALCDKHSK [Y1I], 3.73; for YSSSKGSLRWCDMRAAALCDKHSK [L10W], 2.21. The same measure, in the same setting: for YSSSKGSLRTCDMRAAALCDKHSK [L10T] the value was 3.35; for YSSSKGSLRRCDMRAAALCDKHSK [L10R], 3.16. Still for that read-out and setting: for YSSSKGSLRDCDMRAAALCDKHSK [L10D] the value was 4.23; for YSSSKGSLRECDMRAAALCDKHSK [L10E], 4.47.

Turning to YSSSKGSLRNCDMRAAALCDKHSK [L10N], the protein stability index stood at 3.67. In the case of YSSSKGSLRSCDMRAAALCDKHSK [L10S], the protein stability index turned out to be 3.54. Turning to YSSSKGSLRACDMRAAALCDKHSK [L10A], the protein stability index is 3.72.

For the variant YSSSKGSLRCCDMRAAALCDKHSK [L10C], the protein stability index stood at 2.95. The same measure, in the same setting: for YSSSKGSLRQCDMRAAALCDKHSK [L10Q] the value was 3.79. On the same count and under the same terms, for YSSSKGSLRMCDMRAAALCDKHSK [L10M] the value was 1.92; for YSSSKGSLRGCDMRAAALCDKHSK [L10G], 3.53; for YSSSKGSLRKCDMRAAALCDKHSK [L10K], 3.1.

YSSSKGSLRVCDMRAAALCDKHSK [L10V]: the protein stability index came to 3.54.

As to YSSSKGSLRFCDMRAAALCDKHSK [L10F], the protein stability index was determined as 2.22.

Consider YSSSKGSLRPCDMRAAALCDKHSK [L10P], for which the protein stability index was found to be 3.52. For YSSSKGSLRHCDMRAAALCDKHSK [L10H], the protein stability index was found to be 3.04. Regarding YSSSKGSLRICDMRAAALCDKHSK [L10I], the protein stability index turned out to be 2.9.

A further data set covers variants of B2. The data set is described as above. The note with it: c terminus: a fixed tail appended.
As for PRPPSNPPARGTLKTSNLPEELRY [K24Y], the protein stability index stood at 3.78.

As to PRPPSNPPARGTLKTSNLPEELRW [K24W], the protein stability index amounted to 4.19.
